Values belong to the binder of their own block, whether it stands above or below them.
Tests used:
[1] = target: T1, αvβ3 integrin on human coronary artery smooth muscle cells (CASMCs) (human, UniProt P06756 31-1048; P05106 27-788); experiment: competition with 125I-OPN in affinity crosslinking on CASMCs; GRGDS at 1 µM
T1 construct: whole, on cells; Endogenous receptor on sub-confluent cultured human CASMCs (Clonetics); It was identified as the ~300 kD crosslinked band by immunoprecipitation with an αvβ3 integrin antibody; also called approximately 300 kD cell surface protein on CASMCs
Description: After washing, the cells were incubated with 0.20 mM DSS in 1 ml HBSS, pH 7.6 at 37° C. for 30 min. The cells were scraped, collected by centrifugation and lysed in 40 µl of 1% Triton X-100 solution containing 1 mM PMSF, 20 µg/ml leupeptin and 2 mM EDTA.

[2] = target: T1, αvβ3 integrin on human coronary artery …; experiment: 125I-OPN binding to sub-confluent CASMCs, displaced by unlabeled OPN, 37 °C 3 h; Scatchard analysis (LIGAND program)
Description: The radioactivity was measured by gamma counter and the specific binding was calculated by subtracting the non-specific binding from the total binding.

T1 sequence (P06756 31-1048, chain 1 of 2): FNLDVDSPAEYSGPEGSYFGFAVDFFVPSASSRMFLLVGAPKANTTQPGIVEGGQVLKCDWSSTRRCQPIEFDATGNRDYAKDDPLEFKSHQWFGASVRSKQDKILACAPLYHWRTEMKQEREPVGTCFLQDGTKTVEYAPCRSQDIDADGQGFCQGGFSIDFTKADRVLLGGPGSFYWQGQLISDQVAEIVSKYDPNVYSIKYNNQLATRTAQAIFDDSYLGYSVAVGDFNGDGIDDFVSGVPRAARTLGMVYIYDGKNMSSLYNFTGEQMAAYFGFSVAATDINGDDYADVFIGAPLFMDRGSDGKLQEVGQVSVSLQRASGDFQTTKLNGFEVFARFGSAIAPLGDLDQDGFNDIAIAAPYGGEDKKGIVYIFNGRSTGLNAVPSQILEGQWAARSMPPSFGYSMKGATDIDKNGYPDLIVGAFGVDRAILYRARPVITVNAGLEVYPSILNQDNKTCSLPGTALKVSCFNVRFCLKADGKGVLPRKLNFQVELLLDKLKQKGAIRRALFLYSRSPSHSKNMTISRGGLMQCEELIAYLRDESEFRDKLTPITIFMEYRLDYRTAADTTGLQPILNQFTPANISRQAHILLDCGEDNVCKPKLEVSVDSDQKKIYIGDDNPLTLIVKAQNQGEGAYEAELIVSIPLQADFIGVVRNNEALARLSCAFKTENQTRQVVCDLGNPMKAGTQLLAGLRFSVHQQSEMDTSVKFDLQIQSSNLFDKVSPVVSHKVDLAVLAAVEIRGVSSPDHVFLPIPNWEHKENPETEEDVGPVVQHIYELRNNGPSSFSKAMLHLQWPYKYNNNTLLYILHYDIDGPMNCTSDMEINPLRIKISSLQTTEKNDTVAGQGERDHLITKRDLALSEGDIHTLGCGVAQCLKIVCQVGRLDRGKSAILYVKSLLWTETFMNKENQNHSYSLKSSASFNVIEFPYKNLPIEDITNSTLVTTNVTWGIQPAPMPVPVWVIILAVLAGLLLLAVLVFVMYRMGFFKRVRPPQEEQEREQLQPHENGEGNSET
T1 sequence (P05106 27-788, chain 2 of 2): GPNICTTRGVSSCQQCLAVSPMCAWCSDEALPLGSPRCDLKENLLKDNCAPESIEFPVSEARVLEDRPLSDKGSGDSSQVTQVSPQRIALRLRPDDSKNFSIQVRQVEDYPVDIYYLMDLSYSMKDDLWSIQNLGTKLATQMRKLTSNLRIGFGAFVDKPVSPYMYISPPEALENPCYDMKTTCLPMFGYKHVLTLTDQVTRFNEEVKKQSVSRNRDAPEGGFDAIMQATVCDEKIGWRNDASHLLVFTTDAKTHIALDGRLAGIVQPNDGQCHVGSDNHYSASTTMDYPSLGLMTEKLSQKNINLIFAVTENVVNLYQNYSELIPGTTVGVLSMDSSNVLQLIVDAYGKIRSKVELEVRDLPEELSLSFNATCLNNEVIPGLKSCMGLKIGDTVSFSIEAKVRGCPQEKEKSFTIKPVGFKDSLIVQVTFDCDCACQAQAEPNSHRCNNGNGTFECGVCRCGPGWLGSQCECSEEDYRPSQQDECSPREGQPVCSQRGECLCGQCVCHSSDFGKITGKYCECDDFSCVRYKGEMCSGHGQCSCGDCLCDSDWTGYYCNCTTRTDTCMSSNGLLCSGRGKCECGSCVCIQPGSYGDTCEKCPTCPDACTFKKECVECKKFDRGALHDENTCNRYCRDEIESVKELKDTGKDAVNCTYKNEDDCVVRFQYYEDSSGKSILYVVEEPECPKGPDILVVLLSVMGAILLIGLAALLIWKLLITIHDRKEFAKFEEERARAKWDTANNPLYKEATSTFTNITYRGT

binding result [1]: binds
B1: Gly-Arg-Gly-Asp-Ser (GRGDS) oligopeptide (peptide)
peptide: GRGDS
notes: also called GRGDS peptide

Kd [2]: 1 nM
B2: human osteopontin (purified hOPN) (ligand)
chain: not shown
modifications: radioiodinated (125I, Chloramine-T method) when used as tracer; labelled residues not stated; the natural protein is described as a glycosylated phosphoprotein
